Substrate in the series: N[C@@H](CC(=O)O)C(=O)O
As to the kind of experiment: purified protein. The format is biochemical, Plasmodium berghei. The following applies: 5 mM glutamine as amino donor, 10 mM ATP, 10 mM MgCl2, 50 mM Tris pH 8.0.

B1: PbAS (recombinant P. berghei asparagine synthetase) (Plasmodium berghei ANKA) (protein)
chain: MCGILAIFHSSIETNRLRRKALRLSKILRHRGPDWNGIVVEENGDGTTNVLTHERLSIVDVLSGQQPLYDDKKEICLTINGEIYNHLELRKLVKQDILDALKSKSDCAIIPNLYKIYKEKLPCMLDGIFAGVISDKKYNTFFAFRDPIGICPLYIGYAADGSIWFASEFKALRIYCVRYVAFPPGHYYMCNNGKGEFVRYYNPNWWKLNSPIPNNKIDLEKIRITLENAVIKRLMGDVPFGVLLSGGLDSSIIASIISRHLKSIQTGTINNINGACVGKNNKNLNALKSFSIGLKDSPDLKAAKEVSDFLNTDHTEFHFTVDQGIDTLHDVIYHIETYDITTIRASTPMYILSRLIKSSCIKMVLSGEGSDEIFGGYLYFHKAPNAEEFHRELQRKIHDLHIYDVLRANKSTMAFGIEARVPFLDLEFLDLVMNIDPKEKMCSNNRIEKDILRRAFSGYLPDHILYRQKEQFSDGVGYNWIDGLKEYAEKKVSDAQFSRAPFLFPYNTPKTKEAYLYRCIFYQCFPEQCAQEFVPEGPSIACSTSKAIEWDEQFKVNPDQSGRYVLDVHKHSKNIEDIKAA
notes: full-length cDNA without stop codon in pET-20b(+), BamHI/XhoI, C-terminal 6xHis kept, E. coli Rosetta2DE3pLysS, Ni-NTA, 67 kDa; domains 1-202 and 203-581
On to B1, for which the Km (usually the concentration of substrate that gives half-maximal velocity) came out at 0.26 ± 0.05 mM.

Values taken from article PMC4659947, “Asparagine requirement in Plasmodium berghei as a target to prevent malaria transmission and liver infections” (Nature Communications, 2015).
